Legend:
purified protein [1] = substrate: Cc1cc2nc3c(=O)[nH]c(=O)nc-3n(C[C@H](O)[C@H](O)[C@H](O)COP(=O)(O)O)c2cc1C; test: purified protein; assay type: biochemical, Entamoeba histolytica; conditions: apparent, ATP fixed 100 µM (table footnote prints mM), 5 mM MgCl2, 50 mM Tris-HCl pH 7.5, 35°C
purified protein [2] = substrate: Nc1ncnc2c1ncn2[C@@H]1O[C@H](COP(=O)(O)OP(=O)(O)OP(=O)(O)O)[C@@H](O)[C@H]1O; test: purified protein; assay type: biochemical, Entamoeba histolytica; conditions: apparent, FMN fixed 200 µM (table footnote prints mM), 5 mM MgCl2, 50 mM Tris-HCl pH 7.5, 35°C

B1: EhFADS (EHI_198800) (Entamoeba histolytica HM-1:IMSS) (protein)
chain: MKGKTKQTKQILHDLKERFGEGPYEVMIAGTFDLIHPGHIHFIQEAAQFGRVIVIIARDSVVKRIKQRETVLDEKMRQSIVEGIKGVSEVVLGCENGNWYEPILKRNPHLFLMGFNQPGDLFRFEKVIHEKGGRTIFRRSNSMEKSYSLQSSSQIRRRVIEIVNNKIQ
Km (purified protein [1]): 0.0707 ± 0.0071 mM
Vmax (purified protein [1]): 0.06 µmol/min/mg
kcat (purified protein [1]): 0.0202 ± 0.002 s⁻¹
Km (purified protein [2]): 0.0439 ± 0.0079 mM
Vmax (purified protein [2]): 0.0649 µmol/min/mg
kcat (purified protein [2]): 0.0218 ± 0.000333 s⁻¹

Source: article PMC11423594, “Identification and characterization of archaeal-type FAD synthase as a novel tractable drug target from the parasitic protozoa Entamoeba histolytica” (mSphere, 2024)
